From the domain aggregation screens of Martell et al. (2025)

experiment: soluble fraction after stress (log2 fold change); higher = more stays soluble; pooled small domains, quantitative proteomics; details: stress: pH 4
Summary of the method: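 With high-throughput quantitative proteomics, pooled custom libraries of small protein domains were measured after pH 4 stress. Each domain's soluble amount after the stress gives a fold change taken as aggregation propensity. Higher log2 values mean more of the domain stayed soluble.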

First: HMSVTSEIGAKIKYFRKSKHFSLQEMADLLYKSKSTLSKYENGQISIDIETLYAIAKVLGVHVEQLLYSEP
Second: HMSVTSIEGRVVYDENANKIGIAKQVGIDSTQSMVLVLTKNDGTEGSISWNNIKKIGEIILLGN
The “soluble fraction (log2)” value of the first is higher: 0.222 for the first, -1.34 for the second.

“HMSWAGRRSLAALEARYRDETGISNLKIKHNGVLGYHIEVPSKSADKLMAPDSGFTHRQTLAGAVR” and “HMSYDAINGYEPSDLRGSLTLEQTASMLNLPLTDVYARLGLPANYPSGATLKDGAADMGMGLSDFKHQLF” are within 0.2 log units of each other in “soluble fraction (log2)” value: 0.00623 for the first, 0.0723 for the second.

“HMSYLDTLPGRRVAAQGAITGDAGTLAVDGDTWSARVEPGAPDVAPGDEVTVLRIDGATLVVRPLP” and “HMSYPFSEDALKEKIREYLKHNRSINRKVLEAEFHIRKQTALNWLKKLEKSGFLIKEGSRNAPVYFLAE” are within 0.2 log units of each other in “soluble fraction (log2)” value: 0.0453 for the first, 0.0835 for the second.

First: HMSYQADEIKEKLIDILQNQKTGLSGLEISERIGINRITMTKYLQVFAAEGFIKQKNIGNVIIWFIEDGTE
Second: HMSYTYPVARLNHIKGKWYVLVSVPAHLRHLFPNQRDLRRSTGTDDESLAKRKQHALAQEIYDLFD
The “soluble fraction (log2)” value of the first is lower: -0.8 for the first, 0.00145 for the second.

First: HMTAFEPYLVKVMASVLNIRKGPGTSYAITGQIKDKGTYTIVAESGSWGKLKSGAGWISLSYTSKAGKA
Second: HMTAFSEQLIKLRKQKGLSQEQLGAAVGVTRQTVSKWELGDTTPELGKLVQLSDYFQLSIDELVGH
The “soluble fraction (log2)” value of the first is lower: -0.591 for the first, 0.177 for the second.

“HMTAGTTALNKLQQGMSTQQVQAALGTPSDRTVKESGVELWKYYYPYENMLLYLKFRDGHLVSFGTN” and “HMTAKQDLDSIYRHLVATRKSIAENPKMVSSIDDPQALIKMLDYAIQYFYTDKRDEALAVLEKNEEQLNFR” are within 0.2 log units of each other in “soluble fraction (log2)” value: -0.244 for the first, -0.206 for the second.

First: HMTALTTEDLERRFYAKTYEGESAQKRLARLEISVFGELRQGRPESDRLHDLNNAVLEKERAALNAGAVG
Second: HMTAMQYVTIKDIADALGISKSSVSRALAGDVHNVSAQTIERVRAKALEMGYLRNNAAVNLR
The “soluble fraction (log2)” value of the first is lower: -0.0471 for the first, 0.22 for the second.

“HMTANDKRNALYRKIEVGRRQLPAMDEVAFRQLLAAEFGVESRKDMSVGQLSRLVNILAEKGAVF” and “HMTANTLDLTYSQFLENVKNGSVNDVTIRGNNVSGNFSDGRKFKTYAVNDPTLVEKLTKMGVNISAAPL” are within 0.2 log units of each other in “soluble fraction (log2)” value: 0.0414 for the first, 0.14 for the second.

First: HMTAPELSVGDYLEYRGKEYKVESLDMDGFITLTDTALEDAPRLISRVTFLTDEFIRSGEYMVIT
Second: HMTAQGDSSDAVQRAITEILRHEDPSHPFSDQQLVIKLRTMDISVSRRTVTKYRKLLHIPSSTHRK
The “soluble fraction (log2)” value of the first is lower: -1.4 for the first, 0.0972 for the second.

Going from “HMTARYQQVEDYIVRRIQDGSWPPGHRLPSEHELVQQFGMSRMTVNRALRDLMQKGRIVRVAGVGSFVAQD” to “HMTATSKKAAWDEVNKIFPTDYERSAAESERAGYAIFRSTAEGVNAWISDLGDRLEINLPDGKTVNIWIEE”, the “soluble fraction (log2)” value falls from 0.22 to -0.624.

Compared with “HMTATVPDSEAGIRLDVYAAALLGVSRAGAQKYIESGAVRVNGLPAPKNRRLESGDVIEAVLPDPE”, “HMTAVAAEQQAQDAYRQTAANNLNEIQAKYKLPDSESDDFFTFAYERGFTQEDFIDIGLVDKIMGDYV” is lower in “soluble fraction (log2)” value: ≥ 0.43 for the first, -0.203 for the second.

Compared with “HMTAVNEHELMNQFKLSLGYANGDDPQTKLSTDEKNDFMRFKEWATAMTKDSKMGKDPDYLKKLAVQWTLK”, “HMTAYEGLPVTLIIDGRVFQQNLQKMNLSVEWLRLELKKFGVTNLKEVLFASLDTEGKLFYQLKT” is lower in “soluble fraction (log2)” value: 0.102 for the first, -0.878 for the second.

“HMTDEYYSYIGKTGTTITVLRPAGIAEVEGERLNVVSEGEFIRKGAAILVKEVEGARILVEEVN” and “HMTDFESYTVRVTATNLNIRKGAGTNFHSAGYIKPGVYTIVEEADGKGATRWGKLKSGMGWISLDYAKK” are within 0.2 log units of each other in “soluble fraction (log2)” value: 0.349 for the first, 0.428 for the second.

Going from “HMTDGYAMRLERLNSLEEYVLNKGTVSLEDLAERFGVSINTIRRDLNELISRGQIKKVYGGVSSLHD” to “HMTDIDATSIERAVAKRRHFFLSNIQDLTMKMARRLIEKDLGLAPKHLDAAPFKTRITELVDAVIALGD”, the “soluble fraction (log2)” value falls from -0.245 to -0.484.

“HMTDIKYLIADGNDIKHWDTASSSYVKVSELPLTSDKFKIYGDDIYHKERTGIIAASPILKIWSPSAE” and “HMTDKLIAYSVDGILNVITSEAQSVKVYAIDGRLVRILQLGEGRNEVSGLAKGIYIVDNRKVAV” are within 0.2 log units of each other in “soluble fraction (log2)” value: -0.0343 for the first, 0.0217 for the second.

Compared with “HMTDLNQIGERIKGLRDALGYSPEKMASILEQKVDDYLAYEEGTKDISLSVLQRIEKEFDIDLSTLLFGT”, “HMTDRKRDAIVQAAIGEFREHGFNGTSMDRVAAAADVSKRTVYNHFPSKEELFEAILLLMWE” is lower in “soluble fraction (log2)” value: -1.17 for the first, -1.78 for the second.

“HMTDSISLTLNGDPRPFRAGATVADLVRDIGLDPAKVAVERNLEIVPRSTLENVHLADGDVLEIVHFV” and “HMTDTIALRSVIAESGLKYKALAEIMGLSPYTLQMKIDNESEFKASEIDALANALGMDMQQRDSIFF” are within 0.2 log units of each other in “soluble fraction (log2)” value: -0.45 for the first, -0.406 for the second.

“HMTDVIADMLTRIRNAASSKHQTVDIPSSNLKKEIAKILLEEGYIRDFIEIDDKKQGIIRITL” and “HMTDYREILRLLSLGLSRTQIADSLNVSRTTVIHTLQRAVAQELDWQTAEGMSDRELVAKLFPV” are within 0.2 log units of each other in “soluble fraction (log2)” value: -0.617 for the first, -0.564 for the second.

First: HMTEAVYMPALQNKTLEEAQRIVEQYDLELEYTYEANAQVEEGRILSQTPQMGVLVERGEKVQAVVSLG
Second: HMTEDELLAQFEEILDGYVGKPGGLIPALQTAQKLFGYLPKRVLQLISMKLDIPYSEVTGVVSFYSFFTTV
The “soluble fraction (log2)” value of the first is higher: -0.43 for the first, -1.12 for the second.

Going from “HMTEEEEFEKGFEILVNLSHFNRFSVYKEDEYVIVRIADYDFNEYFKVKKSDVGRIAEFLNENIT” to “HMTEELLNQRKETMLALLNDPTYVPMKLKELAMLLNLSRDQRDELREVMESLEQDGKVILTKRGKYKIP”, the “soluble fraction (log2)” value rises from -1.86 to -0.255.

First: HMTEELQDMESRIIEAAKRVFVRKGYEATKMSDIALEVGLGRTALHYYFRTKEMLFDAIFGRLMGV
Second: HMTEEPISDGIKKLVEEWENIEGNLIMIFHGIQKHYGYVPRNVAKYVSEAIDVPLTRIYEILTFYNYFTM
The “soluble fraction (log2)” value of the first is higher: -0.594 for the first, -1.43 for the second.

Compared with “HMTEEYAVLWRVARQTLKPEAFDVLWMKYREQLSIAEIAGIMNRSETSVKVMLHRARKNLGTALESS”, “HMTEKIEWYKEVLELEPNSKVFFPLARMLAEEQRFDEAVAVLEHGLERHGEFLEARLFFIELLHET” is lower in “soluble fraction (log2)” value: -0.262 for the first, -2.04 for the second.

First: HMTEKQYIYSIGDRVNIGTDEFEIVNINEKEVSIADVTFPMLVKQISYEEFDRKVKENPFNDHLII
Second: HMTEKSTRSVPQEHEGKRLDVAAALLFPVYSRSELARRIDAGYLLLNGKGSTPKTKVHELDLIELLEV
The “soluble fraction (log2)” value of the first is higher: -1.25 for the first, -1.65 for the second.

Going from “HMTELKKTAVDTWVKDLGTEQALAKLDTLAVVKLRRLAREYKAFGIAGRAISKADKGMLLAEFRAYYEN” to “HMTETSKLTDAKQLLESILSSGEVSYKDIISAAEEYEIGKRTLMSAKALLSIESIKKTDGWYWTLPH”, the “soluble fraction (log2)” value falls from 0.171 to -0.0778.

First: HMTEVPSLSSLKIGDLIFYRNNKGAIAHSAIITSFYNGRPFISQHTFNALNITYVKDWASKMHFIKIW
Second: HMTEWDDATVKDAVEYFMSVNGRVPTVTDFKKENGLPSHPVIKQRYKINLHEWLNKNFPTYY
The “soluble fraction (log2)” value of the first is higher: -0.934 for the first, -1.19 for the second.

Compared with “HMTFEPVYDENSRILILGTFPSVKSREQQFYYGHPQNRFWKLLAALTGWKVPKTISEKKELLLQNGIA”, “HMTFFDDLLYQAKAAVDNDPSIKPSLHNRAIIEILYQQGVFNMKNAVEHVAELLEISKNTVYLHLRSVKG” is lower in “soluble fraction (log2)” value: -0.665 for the first, -0.976 for the second.

Going from “HMTFGEMLQYTNRLKEILESNAPQSIKDRRLANLMTDLEQAYGIPILRDQEFEKENPFLMQLYRTIS” to “HMTFKDIMENYTISRIENTINSAVVFLDEINAYITIDKTQLPSNLRYDTDSKIMASQIPDDAKIKYFMIYW”, the “soluble fraction (log2)” value falls from -1.36 to -1.61.

Compared with “HMTFPIDINRADTEQLTALPGIGEVLAKRIIAYREENGSFLSTDELKNVEGIGEKRLEAIVDLITIG”, “HMTFSDKIRELRKQKGVSQAVVAEYLGITKQAYSLYETGKREPDFDSLLKLAEYFGTDTDSLLY” is higher in “soluble fraction (log2)” value: -0.935 for the first, -0.379 for the second.

Going from “HMTGEEVLIMLGEKMKLIRNYNGYSQRQIAEILKIERSTYASYETGRNRPDIFAVQRFAKIFNVSVDYIL” to “HMTGELEVTAAGLSPEKLLNLAAKNHITLSNVKRLSYTQLSFRIGPADYNRLKKLLPEGRYKLNVGSS”, the “soluble fraction (log2)” value rises from -0.877 to -0.0957.

First: HMTGESIPFSKFLSEVDSGRVINVEIQGNNISGLLSDGNKFKTYSPNYPNLVEILSEKEVSIVATPLE
Second: HMTGGLTQEQISQLRMLTPQQIEQLRQLQPQQVEMLRQLRPEQVMLLTQLEPQQIMAFMRLEPSVIMQL
The “soluble fraction (log2)” value of the first is higher: -0.166 for the first, -0.657 for the second.

“HMTGGMVTYIIEKGEGFFSLERKFGLSENELIKLNPSLKSGLKSEMQINIPKENYDRYVASS” and “HMTGIESVKPSSDFTVEGNRIVAGDAEVEVYDLAGRKVNNNNLTTGVYIAKIAGSAESVKVFV” are within 0.2 log units of each other in “soluble fraction (log2)” value: 0.206 for the first, 0.22 for the second.

Compared with “HMTGIQDVPALETRRVGNTFFFDRATDVQVYDLQGRLLQQARKVTSVSIGHLQQGVYVLTDGRASVKVQ”, “HMTGIQLNDRERAILQHLSDGLTTKAIAERIFLREDTVKWYRKNLLARFEQPIVAALVKWAVLEGLV” is higher in “soluble fraction (log2)” value: -0.7 for the first, 0.409 for the second.

First: HMTGIVVVDVVGQVGRPGLVSLPAGSRVADAITAAGGATPEADVSLLNQARLVIDGEQIRVPRPGEVIAA
Second: HMTGKVSHGERKSVLVSLAGSMRARGMSIDAVRAGLYADNEKRFDPPLDERDIEDVLNSAKKWGDP
The “soluble fraction (log2)” value of the first is higher: 0.22 for the first, -0.0814 for the second.

Going from “HMTGMDALIGRRVFVSEEILPGDAGGRVAVDGDSWRAISVGTAKPIPAGTEVRIHGYKSLILEVEPI” to “HMTGQHFDLEDTDGNLVYEIDSTVPLKTFYIYDAMHTEIFRMTKELLHALPTYRFYLYGEPYGVLKKQ”, the “soluble fraction (log2)” value falls from 0.0974 to -0.52.

For “HMTGRVKWYDATKGFGFVTSDEGGDVFLPKGALPAGVADLKTGQRIEFGVVDSRKGAQALGVK”, the “soluble fraction (log2)” value was -0.22.
